These results are taken from publication doi:10.1101/2022.03.17.484791.

This test has as its target PY-NLS mutants (R206W/Q/G, P209L, and Y210C). The test can be described thus: co-IP.

“Kapβ2, endogenous in HEK293T cells (from UniProt Q92973 1-898) (receptor)” yielded a reduction in Kapβ2 interaction against WT of 50 to 75%.
